According to paper PMC11187071:

B1: WT GPRC5D expressed on HEK293T cells, Q9NZD1 E83A (protein)
chain: MYKDCIESTGDYFLLCDAEGPWGIILESLAILGIVVTILLLLAFLFLMRKIQDCSQWNVLPTQLLFLLSVLGLFGLAFAFIIALNQQTAPVRYFLFGVLFALCFSCLLAHASNLVKLVRGCVSFSWTTILCIAIGCSLLQIIIATEYVTLIMTRGMMFVNMTPCQLNVDFVVLLVYVLFLMALTFFVSKATFCGPCENWKQHGRLIFITVLFSIIIWVVWISMLLRGNPQFQRQPQWDDPVVCIALVTNAWVFLLLYIVPELCILYRSCRQECPLQGNACPVTAYQHSFQVENQELSRARDSDGAEEDVALTSYGTPIQPQTVDPTQECFIPQAKLSPQQDAGGV
B2: WT GPRC5D expressed on HEK293T cells, Q9NZD1 S8G; D11G; L15G; C16G; D17G (protein)
chain: MYKDCIEGTGGYFLGGGAEGPWGIILESLAILGIVVTILLLLAFLFLMRKIQDCSQWNVLPTQLLFLLSVLGLFGLAFAFIIELNQQTAPVRYFLFGVLFALCFSCLLAHASNLVKLVRGCVSFSWTTILCIAIGCSLLQIIIATEYVTLIMTRGMMFVNMTPCQLNVDFVVLLVYVLFLMALTFFVSKATFCGPCENWKQHGRLIFITVLFSIIIWVVWISMLLRGNPQFQRQPQWDDPVVCIALVTNAWVFLLLYIVPELCILYRSCRQECPLQGNACPVTAYQHSFQVENQELSRARDSDGAEEDVALTSYGTPIQPQTVDPTQECFIPQAKLSPQQDAGGV
B3: WT GPRC5D expressed on HEK293T cells, Q9NZD1 S8A (protein)
chain: MYKDCIEATGDYFLLCDAEGPWGIILESLAILGIVVTILLLLAFLFLMRKIQDCSQWNVLPTQLLFLLSVLGLFGLAFAFIIELNQQTAPVRYFLFGVLFALCFSCLLAHASNLVKLVRGCVSFSWTTILCIAIGCSLLQIIIATEYVTLIMTRGMMFVNMTPCQLNVDFVVLLVYVLFLMALTFFVSKATFCGPCENWKQHGRLIFITVLFSIIIWVVWISMLLRGNPQFQRQPQWDDPVVCIALVTNAWVFLLLYIVPELCILYRSCRQECPLQGNACPVTAYQHSFQVENQELSRARDSDGAEEDVALTSYGTPIQPQTVDPTQECFIPQAKLSPQQDAGGV
B4: WT GPRC5D expressed on HEK293T cells, Q9NZD1 R154G; V159G; N160G; T162G; P163G; L166G (protein)
chain: MYKDCIESTGDYFLLCDAEGPWGIILESLAILGIVVTILLLLAFLFLMRKIQDCSQWNVLPTQLLFLLSVLGLFGLAFAFIIELNQQTAPVRYFLFGVLFALCFSCLLAHASNLVKLVRGCVSFSWTTILCIAIGCSLLQIIIATEYVTLIMTGGMMFGGMGGCQGNVDFVVLLVYVLFLMALTFFVSKATFCGPCENWKQHGRLIFITVLFSIIIWVVWISMLLRGNPQFQRQPQWDDPVVCIALVTNAWVFLLLYIVPELCILYRSCRQECPLQGNACPVTAYQHSFQVENQELSRARDSDGAEEDVALTSYGTPIQPQTVDPTQECFIPQAKLSPQQDAGGV
B5: WT GPRC5D expressed on HEK293T cells, Q9NZD1 P235A (protein)
chain: MYKDCIESTGDYFLLCDAEGPWGIILESLAILGIVVTILLLLAFLFLMRKIQDCSQWNVLPTQLLFLLSVLGLFGLAFAFIIELNQQTAPVRYFLFGVLFALCFSCLLAHASNLVKLVRGCVSFSWTTILCIAIGCSLLQIIIATEYVTLIMTRGMMFVNMTPCQLNVDFVVLLVYVLFLMALTFFVSKATFCGPCENWKQHGRLIFITVLFSIIIWVVWISMLLRGNPQFQRQAQWDDPVVCIALVTNAWVFLLLYIVPELCILYRSCRQECPLQGNACPVTAYQHSFQVENQELSRARDSDGAEEDVALTSYGTPIQPQTVDPTQECFIPQAKLSPQQDAGGV
B6: WT GPRC5D expressed on HEK293T cells, Q9NZD1 D11A (protein)
chain: MYKDCIESTGAYFLLCDAEGPWGIILESLAILGIVVTILLLLAFLFLMRKIQDCSQWNVLPTQLLFLLSVLGLFGLAFAFIIELNQQTAPVRYFLFGVLFALCFSCLLAHASNLVKLVRGCVSFSWTTILCIAIGCSLLQIIIATEYVTLIMTRGMMFVNMTPCQLNVDFVVLLVYVLFLMALTFFVSKATFCGPCENWKQHGRLIFITVLFSIIIWVVWISMLLRGNPQFQRQPQWDDPVVCIALVTNAWVFLLLYIVPELCILYRSCRQECPLQGNACPVTAYQHSFQVENQELSRARDSDGAEEDVALTSYGTPIQPQTVDPTQECFIPQAKLSPQQDAGGV
B7: WT GPRC5D expressed on HEK293T cells, Q9NZD1 C16A (protein)
chain: MYKDCIESTGDYFLLADAEGPWGIILESLAILGIVVTILLLLAFLFLMRKIQDCSQWNVLPTQLLFLLSVLGLFGLAFAFIIELNQQTAPVRYFLFGVLFALCFSCLLAHASNLVKLVRGCVSFSWTTILCIAIGCSLLQIIIATEYVTLIMTRGMMFVNMTPCQLNVDFVVLLVYVLFLMALTFFVSKATFCGPCENWKQHGRLIFITVLFSIIIWVVWISMLLRGNPQFQRQPQWDDPVVCIALVTNAWVFLLLYIVPELCILYRSCRQECPLQGNACPVTAYQHSFQVENQELSRARDSDGAEEDVALTSYGTPIQPQTVDPTQECFIPQAKLSPQQDAGGV
B8: WT GPRC5D expressed on HEK293T cells, Q9NZD1 E83G; L84G (protein)
chain: MYKDCIESTGDYFLLCDAEGPWGIILESLAILGIVVTILLLLAFLFLMRKIQDCSQWNVLPTQLLFLLSVLGLFGLAFAFIIGGNQQTAPVRYFLFGVLFALCFSCLLAHASNLVKLVRGCVSFSWTTILCIAIGCSLLQIIIATEYVTLIMTRGMMFVNMTPCQLNVDFVVLLVYVLFLMALTFFVSKATFCGPCENWKQHGRLIFITVLFSIIIWVVWISMLLRGNPQFQRQPQWDDPVVCIALVTNAWVFLLLYIVPELCILYRSCRQECPLQGNACPVTAYQHSFQVENQELSRARDSDGAEEDVALTSYGTPIQPQTVDPTQECFIPQAKLSPQQDAGGV
B9: WT GPRC5D expressed on HEK293T cells, Q9NZD1 Q236A (protein)
chain: MYKDCIESTGDYFLLCDAEGPWGIILESLAILGIVVTILLLLAFLFLMRKIQDCSQWNVLPTQLLFLLSVLGLFGLAFAFIIELNQQTAPVRYFLFGVLFALCFSCLLAHASNLVKLVRGCVSFSWTTILCIAIGCSLLQIIIATEYVTLIMTRGMMFVNMTPCQLNVDFVVLLVYVLFLMALTFFVSKATFCGPCENWKQHGRLIFITVLFSIIIWVVWISMLLRGNPQFQRQPAWDDPVVCIALVTNAWVFLLLYIVPELCILYRSCRQECPLQGNACPVTAYQHSFQVENQELSRARDSDGAEEDVALTSYGTPIQPQTVDPTQECFIPQAKLSPQQDAGGV
B10: WT GPRC5D expressed on HEK293T cells, Q9NZD1 T9A (protein)
chain: MYKDCIESAGDYFLLCDAEGPWGIILESLAILGIVVTILLLLAFLFLMRKIQDCSQWNVLPTQLLFLLSVLGLFGLAFAFIIELNQQTAPVRYFLFGVLFALCFSCLLAHASNLVKLVRGCVSFSWTTILCIAIGCSLLQIIIATEYVTLIMTRGMMFVNMTPCQLNVDFVVLLVYVLFLMALTFFVSKATFCGPCENWKQHGRLIFITVLFSIIIWVVWISMLLRGNPQFQRQPQWDDPVVCIALVTNAWVFLLLYIVPELCILYRSCRQECPLQGNACPVTAYQHSFQVENQELSRARDSDGAEEDVALTSYGTPIQPQTVDPTQECFIPQAKLSPQQDAGGV
B11: WT GPRC5D expressed on HEK293T cells, Q9NZD1 L15A (protein)
chain: MYKDCIESTGDYFLACDAEGPWGIILESLAILGIVVTILLLLAFLFLMRKIQDCSQWNVLPTQLLFLLSVLGLFGLAFAFIIELNQQTAPVRYFLFGVLFALCFSCLLAHASNLVKLVRGCVSFSWTTILCIAIGCSLLQIIIATEYVTLIMTRGMMFVNMTPCQLNVDFVVLLVYVLFLMALTFFVSKATFCGPCENWKQHGRLIFITVLFSIIIWVVWISMLLRGNPQFQRQPQWDDPVVCIALVTNAWVFLLLYIVPELCILYRSCRQECPLQGNACPVTAYQHSFQVENQELSRARDSDGAEEDVALTSYGTPIQPQTVDPTQECFIPQAKLSPQQDAGGV
B12: WT GPRC5D expressed on HEK293T cells, Q9NZD1 P235G; Q236G (protein)
chain: MYKDCIESTGDYFLLCDAEGPWGIILESLAILGIVVTILLLLAFLFLMRKIQDCSQWNVLPTQLLFLLSVLGLFGLAFAFIIELNQQTAPVRYFLFGVLFALCFSCLLAHASNLVKLVRGCVSFSWTTILCIAIGCSLLQIIIATEYVTLIMTRGMMFVNMTPCQLNVDFVVLLVYVLFLMALTFFVSKATFCGPCENWKQHGRLIFITVLFSIIIWVVWISMLLRGNPQFQRQGGWDDPVVCIALVTNAWVFLLLYIVPELCILYRSCRQECPLQGNACPVTAYQHSFQVENQELSRARDSDGAEEDVALTSYGTPIQPQTVDPTQECFIPQAKLSPQQDAGGV
B13: WT GPRC5D expressed on HEK293T cells, Q9NZD1 S8G; D11G; L15G; C16G; D17G; E83G; L84G; R154G; V159G; N160G; T162G; P163G; L166G; P235G; Q236G (protein)
chain: MYKDCIEGTGGYFLGGGAEGPWGIILESLAILGIVVTILLLLAFLFLMRKIQDCSQWNVLPTQLLFLLSVLGLFGLAFAFIIGGNQQTAPVRYFLFGVLFALCFSCLLAHASNLVKLVRGCVSFSWTTILCIAIGCSLLQIIIATEYVTLIMTGGMMFGGMGGCQGNVDFVVLLVYVLFLMALTFFVSKATFCGPCENWKQHGRLIFITVLFSIIIWVVWISMLLRGNPQFQRQGGWDDPVVCIALVTNAWVFLLLYIVPELCILYRSCRQECPLQGNACPVTAYQHSFQVENQELSRARDSDGAEEDVALTSYGTPIQPQTVDPTQECFIPQAKLSPQQDAGGV

How the values were obtained:
[1] = target: IgG150-18 (scFv150-18 cloned into human IgG format); experiment: FACS binding assay; settings: chain shown with the change, read off a plot
Chain of IgG150-18 (scFv150-18 cloned into human IgG format) (chain, as listed by the source, chain 1 of 2): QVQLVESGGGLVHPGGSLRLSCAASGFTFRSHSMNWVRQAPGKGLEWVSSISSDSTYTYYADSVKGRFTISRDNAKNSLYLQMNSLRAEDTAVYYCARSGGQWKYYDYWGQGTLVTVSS
Chain of IgG150-18 (scFv150-18 cloned into human IgG format) (chain, as listed by the source, chain 2 of 2): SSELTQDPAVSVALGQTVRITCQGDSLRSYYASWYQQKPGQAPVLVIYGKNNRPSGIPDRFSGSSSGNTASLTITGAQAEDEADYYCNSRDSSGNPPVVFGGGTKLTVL

[2] = target: IgG150-18 (scFv150-18 cloned into human IgG format); experiment: FACS assay on cells; settings: chain shown with the change; highest antibody concentration point, Log [IgG150_18] (M) about -7.5; parent: est. 100; read off a plot
[3] = 100nM antibody, parent: est. 100

Binder	percent of parent ([1]; 1nM antibody, parent: est. 8)	percent of parent ([1]; 10nM antibody, parent: est. 75)	percent of parent [1, 3]	percent of parent [2]
B1	5 % of WT	72 % of WT	95 % of WT	
B2				3 % of WT
B3	3 % of WT	65 % of WT	92 % of WT	
B4				82 % of WT
B5		43 % of WT	95 % of WT	
B6			42 % of WT	
B7		1 % of WT		
B8				97 % of WT
B9		53 % of WT	75 % of WT	
B10	11 % of WT	82 % of WT	100 % of WT	
B11		38 % of WT	63 % of WT	
B12				100 % of WT
B13		1 % of WT		12 % of WT
